The text below walks through data of publication PMC8395317, “The Simple Method of Preparation of Highly Carboxylated Bacterial Cellulose with Ni- and Mg-Ferrite-Based Versatile Magnetic Carrier for Enzyme Immobilization” (International Journal of Molecular Sciences, 2021).

Substrate in this data set: CCCC(=O)Oc1ccc([N+](=O)[O-])cc1
Briefly: purified protein. The note with it: free enzyme, 0.1 to 1.2 mmol/L pNPB, 50 mmol/L phosphate pH 7.0, 0.004% Triton X-100, 30 °C. Format: biochemical, Moesziomyces antarcticus.

B1: lipase B from Candida antarctica (Lipozyme CALB-L) (Moesziomyces antarcticus) (protein)
chain: LPSGSDPAFSQPKSVLDAGLTCQGASPSSVSKPILLVPGTGTTGPQSFDSNWIPLSTQLGYTPCWISPPPFMLNDTQVNTEYMVNAITALYAGSGNNKLPVLTWSQGGLVAQWGLTFFPSIRSKVDRLMAFAPDYKGTVLAGPLDALAVSAPSVWQQTTGSALTTALRNAGGLTQIVPTTNLYSATDEIVQPQVSNSPLDSSYLFNGKNVQAQAVCGPLFVIDHAGSLTSQFSYVVGRSALRSTTGQARSADYGITDCNPLPANDLTPEQKVAAAALLAPAAAAIVAGPKQNCEPDLMPYARPFAVGKRTCSGIVTP
notes: commercial recombinant enzyme (Lipozyme CALB-L, Sigma-Aldrich), used without further purification; free form
As usually defined, the Km is the concentration of substrate that gives half-maximal velocity. As for B1, the Km worked out at 160 ± 10 µM.
